# Target: the molecule itself
# Assay: crystal structure; McrD at 22 mg/mL crystallised at 4 °C in 0.03 M MgCl2, 0.03 M CaCl2, 0.05 M MES, 0.05 M imidazole pH 6.5, 20% glycerol, 10% PEG 4000, 0.02 M carboxylic acids mix; space group C222(1), two molecules in the asymmetric unit; 1.65 Å; oligomerisation analysis with PISA
protein,measurement,value
"Methanomassiliicoccus luminyensis strain B10 McrD (natural protein, UniProt A0AAT8XUI9 1-139, looked up, McrD of Methanomassiliicoccus luminyensis strain B10, NCBI WP_019176772.1; 139 amino acids; cloned with primers from the start codon to the stop codon; in the crystal residues 1-129/130 are modelled, the C-terminal 10 (monomer A) or 9 (monomer B) residues are disordered; 18 (monomer A) and 9 (monomer B) residues of the plasmid-encoded N-terminal tag are seen in the electron density, so the tag …) MSTDKFEPVPLPEILIFPNRLLSAETTEKLLNRVYDVPHVRQVNISGEGVPAMVGSGPGKGLPVEHEGRKVINVKGREIELQLLVGRVFVEIDDIDVVEKAIEAIDEICQELLPFGYNLEVGRYSKYRPTVTDYKKGKR",stoichiometry N,2
